Reference: publication doi:10.1101/2024.04.22.590616

T1: Csm2;Psy3;Shu1;Shu2 (Saccharomyces cerevisiae?;Saccharomyces …, UniProt P40465;Q12318;P38751;P38957 1-213;1-242;1-150;1-223, |||)
T1 sequence 1: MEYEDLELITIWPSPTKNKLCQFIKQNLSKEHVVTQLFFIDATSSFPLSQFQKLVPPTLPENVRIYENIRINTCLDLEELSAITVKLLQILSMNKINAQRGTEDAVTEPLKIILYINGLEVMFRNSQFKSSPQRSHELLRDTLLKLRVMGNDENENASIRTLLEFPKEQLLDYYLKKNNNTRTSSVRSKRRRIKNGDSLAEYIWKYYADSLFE
T1 sequence 2: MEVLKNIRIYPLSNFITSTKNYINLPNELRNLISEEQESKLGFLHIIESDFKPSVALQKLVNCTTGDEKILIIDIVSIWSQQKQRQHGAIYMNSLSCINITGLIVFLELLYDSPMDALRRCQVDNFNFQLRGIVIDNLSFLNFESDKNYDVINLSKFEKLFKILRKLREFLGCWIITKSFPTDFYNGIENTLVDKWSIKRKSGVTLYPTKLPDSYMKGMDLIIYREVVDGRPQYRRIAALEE
T1 sequence 3: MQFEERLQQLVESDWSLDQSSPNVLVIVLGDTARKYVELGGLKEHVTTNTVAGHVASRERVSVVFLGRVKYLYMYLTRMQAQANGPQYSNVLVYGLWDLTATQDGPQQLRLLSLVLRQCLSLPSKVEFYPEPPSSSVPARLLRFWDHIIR
T1 sequence 4: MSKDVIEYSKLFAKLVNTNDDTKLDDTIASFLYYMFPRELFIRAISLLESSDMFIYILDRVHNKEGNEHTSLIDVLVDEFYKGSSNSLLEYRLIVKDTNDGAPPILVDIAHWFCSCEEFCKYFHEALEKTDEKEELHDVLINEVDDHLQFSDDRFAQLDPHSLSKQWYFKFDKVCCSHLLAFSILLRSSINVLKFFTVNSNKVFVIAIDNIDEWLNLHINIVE

T2: Csm2;Psy3 (Saccharomyces cerevisiae?;Saccharomyces …, UniProt P40465;Q12318 1-213;1-242, |)
T2 sequence 1: T1 sequence 1
T2 sequence 2: T1 sequence 2

B1: Fork (10nt) (dsDNA)
DNA 1: ACTGCCCTTACAGCACAGCGGTTTTTTTTTT
DNA 2: TTTTTTTTTTCCGCTGTGCTGTAAGGGCAGT
B2: 3'-overhang (10nt) (dsDNA)
DNA 1: B1 DNA 1
DNA 2: CCGCTGTGCTGTAAGGGCAGT
B3: Fork (20nt) (dsDNA)
DNA 1: TTTTTTTTTTTTTTTTTTTTCTTGACAAGCTTGCGCACT
DNA 2: AGTGCGCAAGCTTGTCAAGGCACTTTTTTTTTTTTTTTT
B4: 3'-overhang (20nt) (dsDNA)
DNA 1: CTTGACAAGCTTGCGCACT
DNA 2: B3 DNA 2
B5: 5'-overhang (20nt) (dsDNA)
DNA 1: B3 DNA 1
DNA 2: AGTGCGCAAGCTTGTCAAG
B6: ss60 (ssDNA)
DNA: TTTTTTTTTTTTTTTTTTTTTTTTTTTTTTCTTGACAAGCTTGCGCACTTAGGCCTCTAG
B7: ds21 (dsDNA)
DNA 1: ACTTACAGCACAGCGGTTTTT
DNA 2: AAAAACCGCTGTGCTGTAAGT
B8: ds26 (dsDNA)
DNA 1: ACTGCCCTTACAGCACAGCGGTTTTT
DNA 2: AAAAACCGCTGTGCTGTAAGGGCAGT
B9: Fork (5nt) (dsDNA)
DNA 1: ACTGCCCTTACAGCACAGCGGTTTTT
DNA 2: TTTTTCCGCTGTGCTGTAAGGGCAGT
B10: 3'-overhang (5nt) (dsDNA)
DNA 1: ACTGCCCTTACAGCACAGCGGTTTTT
DNA 2: CCGCTGTGCTGTAAGGGCAGT
B11: ds39 (dsDNA)
DNA 1: B3 DNA 1
DNA 2: AGTGCGCAAGCTTGTCAAGAAAAAAAAAAAAAAAAAAAA

Biological target: T1, Csm2;Psy3;Shu1;Shu2
Assay: fluorescence polarization

Binder | Kd [µM]
ACTTACAGCACAGCGGTTTTT (ssDNA) [ss21] | 3.43 ± 0.16
ACTGCCCTTACAGCACAGCGGTTTTT (ssDNA) [ss26] | 3.54 ± 0.24
B1 | 5.84 ± 0.32
B2 | 4.5 ± 0.12
B3 | 2.06 ± 0.13
B4 | 2.82 ± 0.19
B5 | 2.44 ± 0.2
TTTTTTTTTTTTTTTTTTTTCTTGACAAGCTTGCGCACT (ssDNA) [ss39] | 2.76 ± 0.08
ACTGCCCTTACAGCACAGCGGTTTTTTTTTT (ssDNA) [ss31] | 3.31 ± 0.07
B6 | 2.37 ± 0.13
B7 | 6.21 ± 0.19
B8 | 7.23 ± 0.14
B9 | 4.08 ± 0.19
B10 | 4.86 ± 0.28

Biological target: T2, Csm2;Psy3
Assay: fluorescence polarization

Binder | Kd [µM]
B3 | 1.35 ± 0.06
B4 | 1.92 ± 0.28
B5 | 1.18 ± 0.1
TTTTTTTTTTTTTTTTTTTTCTTGACAAGCTTGCGCACT (ssDNA) [ss39] | 1.65 ± 0.18
B11 | 1.49 ± 0.13

Biological target: T1, Csm2;Psy3;Shu1;Shu2
Assay: fluorescence polarization
Remark: another data set of the same source

Binder | Kd [µM]
B11 | 7.4 ± 0.51

Biological target: T1, Csm2;Psy3;Shu1;Shu2
Assay: fluorescence polarization
Remark: another data set of the same source

Binder | Kd [µM]
B3 | 1.03 ± 0.12
B5 | 1.15 ± 0.11
TTTTTTTTTTTTTTTTTTTTCTTGACAAGCTTGCGCACT (ssDNA) [ss39] | 2.77 ± 0.25
B11 | 7.41 ± 0.61
B6 | 2.37 ± 0.29

Biological target: T2, Csm2;Psy3
Assay: fluorescence polarization
Remark: another data set of the same source

Binder | Kd [µM]
B3 | 0.75 ± 0.07
B4 | 1.27 ± 0.12
B5 | 0.95 ± 0.12
TTTTTTTTTTTTTTTTTTTTCTTGACAAGCTTGCGCACT (ssDNA) [ss39] | 1.32 ± 0.12
B11 | 1.45 ± 0.13

Biological target: T1, Csm2;Psy3;Shu1;Shu2
Assay: fluorescence polarization
Remark: another data set of the same source

Binder | Kd [µM]
B3 | 0.86 ± 0.07
B4 | 2.53 ± 0.17
B5 | 1.58 ± 0.16
TTTTTTTTTTTTTTTTTTTTCTTGACAAGCTTGCGCACT (ssDNA) [ss39] | 3.19 ± 0.27
B11 | 6.85 ± 0.49
B6 | 2.4 ± 0.23

Biological target: T2, Csm2;Psy3
Assay: fluorescence polarization
Remark: another data set of the same source

Binder | Kd [µM]
B3 | 0.74 ± 0.05
B4 | 1.6 ± 0.13
B5 | 0.43 ± 0.07
TTTTTTTTTTTTTTTTTTTTCTTGACAAGCTTGCGCACT (ssDNA) [ss39] | 1.49 ± 0.18
B11 | 1.54 ± 0.08

Biological target: T1, Csm2;Psy3;Shu1;Shu2
Assay: fluorescence polarization
Remark: another data set of the same source

Binder | Kd [µM]
B3 | 0.97 ± 0.1
B4 | 2.71 ± 0.22
B5 | 2.42 ± 0.22
TTTTTTTTTTTTTTTTTTTTCTTGACAAGCTTGCGCACT (ssDNA) [ss39] | 2.37 ± 0.22
B11 | 5.8 ± 0.4
B6 | 2.01 ± 0.26

Biological target: T2, Csm2;Psy3
Assay: fluorescence polarization
Remark: another data set of the same source

Binder | Kd [µM]
B3 | 0.78 ± 0.05
B4 | 0.68 ± 0.05
B5 | 0.76 ± 0.09
TTTTTTTTTTTTTTTTTTTTCTTGACAAGCTTGCGCACT (ssDNA) [ss39] | 1.98 ± 0.2
B11 | 1.46 ± 0.12
